B1: Hemojuvelin (Homo sapiens), Q6ZVN8 (parent)
chain: MGEPGQSPSPRSSHGSPPTLSTLTLLLLLCGHAHSQCKILRCNAEYVSSTLSLRGGGSSGALRGGGGGGRGGGVGSGGLCRALRSYALCTRRTARTCRGDLAFHSAVHGIEDLMIQHNCSRQGPTAPPPPRGPALPGAGSGLPAPDPCDYEGRFSRLHGRPPGFLHCASFGDPHVRSFHHHFHTCRVQGAWPLLDNDFLFVQATSSPMALGANATATRKLTIIFKNMQECIDQKVYQAEVDNLPVAFEDGSINGGDRPGGSSLSIQTANPGNHVEIQAAYIGTTIIIRQTAGQLSFSIKVAEDVAMAFSAEQDLQLCVGGCPPSQRLSRSERNRRGAITIDTARRLCKEGLPVEDAYFHSCVFDVLISGDPNFTVAAQAALEDARAFLPDLEKLHLFPSDAGVPLSSATLLAPLLSGLFVLWLCIQ
partner: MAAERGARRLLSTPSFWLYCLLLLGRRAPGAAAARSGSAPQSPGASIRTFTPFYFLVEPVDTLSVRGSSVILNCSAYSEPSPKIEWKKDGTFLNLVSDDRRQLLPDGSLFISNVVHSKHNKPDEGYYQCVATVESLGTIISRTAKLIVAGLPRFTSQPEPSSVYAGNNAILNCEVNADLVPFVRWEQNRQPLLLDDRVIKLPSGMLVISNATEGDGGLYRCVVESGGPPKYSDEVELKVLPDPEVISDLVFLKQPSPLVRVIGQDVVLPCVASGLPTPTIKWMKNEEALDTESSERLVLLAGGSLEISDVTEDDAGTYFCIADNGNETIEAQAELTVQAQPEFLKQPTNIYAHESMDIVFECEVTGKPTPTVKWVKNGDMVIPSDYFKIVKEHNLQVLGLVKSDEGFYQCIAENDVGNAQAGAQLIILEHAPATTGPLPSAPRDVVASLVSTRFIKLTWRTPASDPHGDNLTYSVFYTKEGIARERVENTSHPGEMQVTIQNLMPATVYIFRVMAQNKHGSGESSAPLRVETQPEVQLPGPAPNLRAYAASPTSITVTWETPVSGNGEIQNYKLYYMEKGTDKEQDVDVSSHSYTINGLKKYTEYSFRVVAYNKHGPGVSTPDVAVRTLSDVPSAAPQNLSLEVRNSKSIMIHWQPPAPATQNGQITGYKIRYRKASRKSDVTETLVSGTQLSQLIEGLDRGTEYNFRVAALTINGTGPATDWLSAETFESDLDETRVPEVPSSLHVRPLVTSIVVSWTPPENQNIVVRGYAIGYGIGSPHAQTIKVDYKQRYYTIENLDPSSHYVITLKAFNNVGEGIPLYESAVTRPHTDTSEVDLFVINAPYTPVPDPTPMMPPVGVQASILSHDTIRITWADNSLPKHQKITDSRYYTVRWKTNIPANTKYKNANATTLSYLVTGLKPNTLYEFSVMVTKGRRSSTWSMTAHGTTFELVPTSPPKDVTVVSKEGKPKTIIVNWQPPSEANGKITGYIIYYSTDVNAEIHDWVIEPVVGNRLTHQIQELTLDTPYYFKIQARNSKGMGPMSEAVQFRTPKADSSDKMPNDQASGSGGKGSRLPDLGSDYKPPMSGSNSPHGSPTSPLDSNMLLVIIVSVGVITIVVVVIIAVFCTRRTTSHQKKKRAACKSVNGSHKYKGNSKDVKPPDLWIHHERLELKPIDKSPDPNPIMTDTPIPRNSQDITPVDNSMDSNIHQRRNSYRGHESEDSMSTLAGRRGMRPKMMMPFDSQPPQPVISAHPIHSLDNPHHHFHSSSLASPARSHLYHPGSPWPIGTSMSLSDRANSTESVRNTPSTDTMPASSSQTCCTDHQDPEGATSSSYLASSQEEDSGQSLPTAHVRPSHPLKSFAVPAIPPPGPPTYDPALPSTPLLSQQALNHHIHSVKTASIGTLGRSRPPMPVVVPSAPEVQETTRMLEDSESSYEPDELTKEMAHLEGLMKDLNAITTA

The experiment covers variants of B1. The following applies: with neo1_human NEO1, Q92859.
MGEPGQSPSPRSSHGSPPTLSTLTLLLLLCGHAHSQCKILRCNAEYVSSTLSLRGGGSSGALRGGGGGGRGGGVGSGGLCRALRSYALCTRRTARTCRGDLAFHSAVHGIEDLMIQHNCSRQGPTAPPPPRGPALPGAGSGLPAPDPCDYEGRFSRLHGRPPGFLHCASFGAPHVRSFHHHFHTCRVQGAWPLLDNDFLFVQATSSPMALGANATATRKLTIIFKNMQECIDQKVYQAEVDNLPVAFEDGSINGGDRPGGSSLSIQTANPGNHVEIQAAYIGTTIIIRQTAGQLSFSIKVAEDVAMAFSAEQDLQLCVGGCPPSQRLSRSERNRRGAITIDTARRLCKEGLPVEDAYFHSCVFDVLISGDPNFTVAAQAALEDARAFLPDLEKLHLFPSDAGVPLSSATLLAPLLSGLFVLWLCIQ [D172A]: the “effect of a mutation on the interaction” value is recorded as “decreasing interaction strength”.

(Values after IntAct's records for PubMed 18335997.)
